Reference: paper PMC7885909 (bioRxiv, 2021)

What was measured:
WIV1 RBD = WIV1 RBD (bat SARS-like CoV WIV1, GenBank …, UniProt U5WI05); assay: ELISA
RaTG13 RBD = RaTG13 RBD (bat CoV RaTG13, GenBank MN996532.2, UniProt A0ABF7PLN6); assay: ELISA
SHC014 RBD = SHC014 RBD (bat CoV SHC014, GenBank QJE50589.1, UniProt A0A6M3U4F6); assay: ELISA
[1] = biological target: T1, SARS-CoV-2 receptor binding domain (RBD), wild type, monomeric (SARS-CoV-2, GenBank MN975262.1 (wild …, UniProt A0A679G9E9)); assay: ELISA
SARS-CoV RBD = SARS-CoV RBD (SARS-CoV, GenBank ABD72970.1, UniProt Q202E5); assay: ELISA
[2] = biological target: T1, SARS-CoV-2 receptor binding domain …; assay: BLI

Measured: binding result

B1: ab017 IgG (antibody, V domains shown)
VH: not shown
VL: QSVLTQPASVSGSPGQSITISCTGTSSDVGGYNYVSWYQQHPGKAPKLMIYDVSNRPSGVSNRFSGSKSGNTASLTISGLQAEDEADYYCSSYTSSSSVVFGGGTKLTVL
not listed: [2]
binds: all other assays above

B2: ab114 IgG (antibody, V domains shown)
VH: QVQLVQSGGGVVQPGRSLRLSCAASGFTFSSYGMHWVRQAPGKGLEWVAVIWYDGSNKYYADSVKGRFTISRDNSKNTLYLQMNSLRAEDTAVYYCARDVSSGWSPGDFDYWGQGTLVTVSS
VL: QSVLTQPASVSGSPGQSITISCTGTSSDVGGYNYVSWYQQHPGKAPKLMIYEVSNRPSGVSNRFSGSKSGNTASLTISGLQAEDEADYYCSSYTSSSTYVFGTGTKVTVL
not listed: [2]
binds: all other assays above

B3: ab109 IgG (antibody, V domains shown)
VH: QVQLVQSGGGVVQPGRSLRLSCAASGFTFSSYAMHWVRQAPGKGLEWVAVISYDGSNKYYADSVKGRFTISRDNSKNTLYLQMNSLRAEDTAVYYCARDQEYYDILTGASGGFDYWGQGTLVTVSS
VL: not shown
not listed: [2]
binds: all other assays above

B4: ab007 IgG (antibody, V domains shown)
VH: QVQLVQSGAEVKKPGSSVKVSCKASGGTFSSYAISWVRQAPGQGLEWMGGIIPIFGTANYAQKFQGRVTITADESTSTAYMELSSLRSEDTAVYYCASPHCSSTSCLYHYYYYGMDVWGQGTTVTVSS
VL: not shown
binds: [1]

B5: ab119 IgG (antibody, V domains shown)
VH: EVQLVESGGGLIQPGGSLRLSCAASGFTVSSNYMSWVRQAPGKGLEWVSVIYSGGSTYYADSVKGRFTISRDNSKNTLYLQMNSLRAEDTAVYYCARDLRGITWGQGTLVTVSS
VL: not shown
binds: [1]

B6: ab072 IgG (antibody, V domains shown)
VH: not shown
VL: QSALTQPASVSGSPGQSITISCTGTSSDVGGYNYVSWYQQHPGKAPKLMIYDVSNRPSGVSNRFSGSKSGNTASLTISGLQAEDEADYYCSSYTSSSTLVVFGTGTKVTVL
not listed: [2]
binds: all other assays above

B7: ab072 Fab (Fab, V domains shown)
VH: not shown
VL: QSALTQPASVSGSPGQSITISCTGTSSDVGGYNYVSWYQQHPGKAPKLMIYDVSNRPSGVSNRFSGSKSGNTASLTISGLQAEDEADYYCSSYTSSSTLVVFGTGTKVTVL
binds: [2]
